Assay: yeast display, Sf9 membrane polyspecificity reagent, FACS + sequencing; frameworks hold sequencing errors
Summary of the method: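 In a synthetic yeast display library (Saccharomyces cerevisiae BJ5465), nanobody expression was induced with galactose for 36–48 hours. FACS gates were set low and high (top ~1%) using anti-HA fluorescence for expression and streptavidin fluorescence for binding of the Sf9 membrane reagent. Each polyreactivity label is drawn from the gate of origin.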

| Sequence | polyreactivity (PSR sort gate) |
| --- | --- |
| QVQLVESGGGLVQAGGSLRLSCAASGSTLGGYAMGWYRQAPGKERELVAAISGSRGSTYYADSVKGRFTISRDNAKNTVYLQMTSLKPEDTAVYYCAAGSYWVQYQYDYWGQGTQVTVSS | low polyreactivity |
| QVQLVESGGGLVQAGGSLRLSCAASGSTLGRYALGWYRQAPGKERELVASITWSDDSTYYADSVKGRFTISRDNAKNTVYLQMNSLKPEDTAVYYCAAAGNLYTYRFYYWGQGTQVTVSS | low polyreactivity |
| QVQLVESGGGLVQAGGSLRLSCAASGSTLGRYAMGWYRQAPGKERELVASITWSDDSTYYADSVKGRFTISRDNAKNTVYLQMNSLKPEDTAVYYCNAPPGTFQWQGHSDYWGQGTQVTVSS | low polyreactivity |
| QVQLVESGGGLVQAGGSLRLSCAASGSTLGRYSMGWYRQAPGKERELVAAISWRGGSTYYADSVKGRFTISRDNAKNTVYLQMNSLKPEDTPVYYCAATYRFSEYYYWGQGTQVTVSS | high polyreactivity |
| QVQLVESGGGLVQAGGSLRLSCAASGSTLGVNAMGWYRQAPGKEREFVAAITGRGGNTYYADSVKGRFTISRDNAKNTVYLQMNSLTPEDTAVYYCAARDKYTRYQSILDYYYWGQGTQVTVSS | high polyreactivity |
| QVQLVESGGGLVQAGGSLRLSCAASGSTLHEYAMGWSIQAPGKERELVAAISRGGGNTNYADSVKGRFTISRDNAKNTVYLQMNSLKPEDTAVYYCNARHGKIIFYLERYDYWGQGTQVTVSS | low polyreactivity |
| QVQLVESGGGLVQAGGSLRLSCAASGSTLHEYAMGWYRQAPGKARELVAAISRGGGNTNYADSVKGRFTISRDNAKNTVYLQMNSLIPEDTAVYYCNARHGKIIFYLERYDYWGQGTQVTVSS | low polyreactivity |
| QVQLVESGGGLVQAGGSLRLSCAASGSTLKYNALGWYRQAPGKERELVAAISTSGGNTYYADSVKGRFTISRDYAKNTVYLQMNTLKPEDTAVYYCAKVLGFYYYDYYTPFARGYWGQGTQVTVSS | low polyreactivity |
| QVQLVESGGGLVQAGGSLRLSCAASGSTLLYYVMGWYRQAPGKERELVAAITGTGGRTYYADSVKGRFTISRDNAKNTVYLQMNSLKPEDTAVYYCAADGKFEYDYWGQGTQVTVSS | low polyreactivity |
| QVQLVESGGGLVQAGGSLRLSCAASGSTLNRNAMGWYRQAPGKERELVAAIRVSGGSTYYADSVKGRFTISRDNAKNTVYLQMNSLKPEDTAVYYCATRYVRARWYGYWGQGTQVTVSS | high polyreactivity |
| QVQLVESGGGLVQAGGSLRLSCAASGSTLNRNVMGWYRQAPGKERELVAVITYGVGSTYYADSVKGRFTISRDNAKNTVYLQMNSLKPEDTAVYYCNRPTYLHSTSYSYDYWGQGTQVTVSS | low polyreactivity |
| QVQLVESGGGLVQAGGSLRLSCAASGSTLNYYAMGWYRQAPGKERELVAAIRSGGNTNYADSVKGRFTISRDNAKNTVYLQMNSLKPEDTAVYYCAKDESYFYDRVPLDYWGQGTQVTVSS | low polyreactivity |
| QVQLVESGGGLVQAGGSLRLSCAASGSTLPGFTMGWYRHAPGKERELVAAISWSGGSTSYADSVKGRFTISRDNAKNTVYLQMNSLKPEDTAVYYCDVDRFWRPVRSGSTYDYWGQGTQVTVSS | low polyreactivity |
| QVQLVESGGGLVQAGGSLRLSCAASGSTLPNNAMGWYRQAPGKERELVAAISSSGGSTYYADSVKGRFTISRDNAKNTVYLQMNSLKPEDTAVYYCAAVYSRGTYNYWGQGTQVTVSS | high polyreactivity |
| QVQLVESGGGLVQAGGSLRLSCAASGSTLQINGMGWYRQAPGKERELVAAISIGGDTNYADSVKGRFTISRDNAMNTVSLQMNSLKPEDTAVYYCAASGAYDEAYGEAFYYWGQGTQVIVSS | low polyreactivity |
| QVQLVESGGGLVQAGGSLRLSCAASGSTLQVNAMGWYRQATGKERELVDTISFSGGSTYYADSVKGRFTISRDNAKNTVYLQMNSLKPEDTAVYYCNADSFVSWYNQFWYQATYDYWGQGTQVTVSS | low polyreactivity |
| QVQLVESGGGLVQAGGSLRLSCAASGSTLRGNAMGRYRQAPGKVREFVAAISSSGGRTYYADSVKGRFTISRDNAKNTVNLQMTSLNPEDTAVYYCAAARYQYYFSSVPRAYYYWGQGTQVTVSS | high polyreactivity |
| QVQLVESGGGLVQAGGSLRLSCAASGSTLRGYAMGWYRQAPGKERELVAAITYISDSTYYADSVKGRFTISRDNAKNTVYLQMNSLKPEDTAVYYCNAYYDGDWRYTSQETGDHWGQGTQVTVSS | low polyreactivity |
| QVQLVESGGGLVQAGGSLRLSCAASGSTLRRNAMGWSRQAPGKERELVAAITGSRGSTFYADSVKGRFTISRDNAKNTVYLQMNSLKPEDTAVYYCAVYKWSTRVSQYRYDYWGQGTQVTVSS | high polyreactivity |
| QVQLVESGGGLVQAGGSLRLSCAASGSTLRRNAMGWYRQAPGKERELVAAISGTGGSTYYADSVKGRFTISRDNAKNTVYLQMYSLKPEDTAVYYCAATGWYYDYDYWGQGTQVTVSS | low polyreactivity |
| QVQLVESGGGLVQAGGSLRLSCAASGSTLRRNAMGWYRQAPGKERELVAAITGSRGSTFYADSVKGRFTISRDNAKNTVYLQMNSLKPEDTAVYYCAVYKWSTRVSQYRYDYWGQGTQVTVSS | high polyreactivity |
| QVQLVESGGGLVQAGGSLRLSCAASGSTLRSKAMGWYRQAQGKERELVASISSGGSTSYADSVKGRFTISRDNAKNTVYLQMNSLKPEDTAVYYCAADNSVGSYDYWGQGTQVTVSS | low polyreactivity |

| Sequence | polyreactivity (PSR sort gate) |
| --- | --- |
| QVQLVESGGGLVQAGGSLRLSCAASGSTLRTYAMVWYRQAPGKERELVAAISFSTTSTYYADSVKGRFTISRDNATNTVYLQMNSLKPEDTAVYYCAATYQILTTSAHDSWGQGTQVTVSS | high polyreactivity |
| QVQLVESGGGLVQAGGSLRLSCAASGSTLSDYAMGWYRQAPGKERELVAAISTSGGRTYYADSVKGRFTISRDNAKNTVYLQMNSLKPEDTAVYYCAVDHYSSYEYWGQGTQVSVSS | low polyreactivity |
| QVQLVESGGGLVQAGGSLRLSCAASGSTLSGNAMGWYRQAPGKERELVAAISWNGGATYYADSVKGRFTISRDNAKNTVYLQMNSQKPEDTAVYYCAAEYIVTYEYWYFGYDYWGQGTQVTVSS | low polyreactivity |
| QVQLVESGGGLVQAGGSLRLSCAASGSTLSHYAMGWYRQAPGKERELVAAINSNGGSTYYADSVKGRFTISRDNAKNTVYLQMNSLKPEDTAVYYCKTYFRYFSFYGRPFDYWGQGTQVTVSS | high polyreactivity |
| QVQLVESGGGLVQAGGSLRLSCAASGSTLSQNAMGWYRQAPGKEREFVADISGSGDSTYYADSVKGRFTISRDNAKNTVYLQMNSLKPEDTAVYYCAARSLVQDHAYGYNYWGQGTQVTVSS | low polyreactivity |
| QVQLVESGGGLVQAGGSLRLSCAASGSTLSRYTMGWYRPEPGKERELVAAIRSSGGSTYYADSVKGRFTISRDNAKNTVYLQMNSLKPEDTAVYYCARTQQRTTERVHWIRYYYWGQGTQVTVSS | low polyreactivity |
| QVQLVESGGGLVQAGGSLRLSCAASGSTLSSYAMGWYRPAPGTERELGAVISGGGRTYYADSVKGRFTISRDNAKNTVYLQMNSLKPEDTAVYYCAAVTFSLGYRYYYWGQGTQVTVSS | high polyreactivity |
| QVQLVESGGGLVQAGGSLRLSCAASGSTLSYNAMGWYRPATGKERELVAAISWSDGGTYYADSVKGRFTISRDNAKNTVYLQMNSLKPEDTAVYYCNAESQWSYYFIYDYWGQGTQVTVSS | high polyreactivity |
| QVQLVESGGGLVQAGGSLRLSCAASGSTLSYYAMGWYRPAPGKDRELVAAISFSGGITYYADSVKGRFTISRDNAKNTVYLQMNSLKPEDTAVYYCNAEYQVYRAYVIWYDYWGQGTQVTVSS | high polyreactivity |
| QVQLVESGGGLVQAGGSLRLSCAASGSTLTDYAMGWYRQAPGKERELVAAITSDGDSTNYADSVKGRFTISRDNAKNTVYLQMNSLKPEDTAVYYCAAQGKYHYYVPAYEYWGQGTQVTVSS | low polyreactivity |
| QVQLVESGGGLVQAGGSLRLSCAASGSTLTLYAMGWYRQARGKERELVAAIDWTGGSTYYADSVKGRFTISRDNAKNTVYLQMNSLKPEDTAVYYCAAHSFTEGYWYEYWGQGTQVTVSS | high polyreactivity |
| QVQLVESGGGLVQAGGSLRLSCAASGSTLTRNDIGWYRQAPGKERELVAAITFSGSDTYYADSVKGRFTISRDNAKNTVYLQMNILKPEDTAVYYCAAEYGGYSIYLFIGRYYWGQGTQVTVSS | low polyreactivity |
| QVQLVESGGGLVQAGGSLRLSCAASGSTLTSNAMGWYRQAPGKERELVAAIRSGGSTNYADSVKGRFTISRDNAKNTVYLQMNSLKPEDTAVYYCNKDVLWQGYGYSRVSYDYWGQGTQVTVSS | low polyreactivity |
| QVQLVESGGGLVQAGGSLRLSCAASGSTLVDYAMGWYRQAPGKERELVATISFRGGSTYYADSVKGRCTISRDNAKNTVYLQMNSLKPEDTAVYYCAAEYGPSLYYYYGHAAYAYGYWGQGTQVTVSS | low polyreactivity |
| QVQLVESGGGLVQAGGSLRLSCAASGSTLVDYAMGWYRQAPRKERELVATISFRGGSTYYADSVKGRFTISRDNAKNTVYLQMNSLKPEDTAVYYCAREYGDGYEYWGQGTQVTVSS | low polyreactivity |
| QVQLVESGGGLVQAGGSLRLSCAASGSTLVGNAMGWYRQAPRKERELVATISKRSGSTYYADSVKGRFTISRDNAKNTVYLQMNSLKPEDSAVYYCNADDVRRRAYRIGSYWGYDYWGQGTQVTVSS | low polyreactivity |
| QVQLVESGGGLVQAGGSLRLSCAASGSTLVGNTMGWYRQSPGKERELVAAITGVGSTNYADSVKGRFTISRDNAKNTVYLQMNSLKPEDTAVYYCAAQYSYTYIVSYLYDMDYWGQGTQVTVSS | low polyreactivity |
| QVQLVESGGGLVQAGGSLRLSCAASGSTLVIYAMGWYRQAPGKERELVAAISRGGTTYYADSVKGRFTISRDNAKNTVYLQMNSLKPEDTAVYYCAADARVKRYYFRKSGYWGQGTQVTVSS | high polyreactivity |
| QVQLVESGGGLVQAGGSLRLSCAASGSTLVNNAMGWDRQAPGKEREWVAAITFSGGTTYYADSVKGRFTISRDNAKNTVYLQMNSLKPEDTAVYYCAAEIWLEYVGYDYWGQGTQVTVSS | high polyreactivity |
| QVQLVESGGGLVQAGGSLRLSCAASGSTLVRYALGLSRQAPGKERELVAAISRSGSSTYYADSVKGRFTISRDIAKNTVYLQMNSLKPEDTAVYYCATDRYPTTPYYNYRFGYWGQGTQVTVSS | high polyreactivity |
| QVQLVESGGGLVQAGGSLRLSCAASGSTLVRYAMGWYRQAPGKEREFVAAISWTGGSTYYADSVKGRFTISRDYAKNTVYLQMNSLKPEDTAVYYCSAEYFRGPSYSYWGQGTQVTVSS | high polyreactivity |
